Reference: US20210230570
Numbering of substitutions follows the chain as printed. Names and notes keep the numbering of the source.

B1: FIXa K293E/R338E/R403E (protein)
chain 1: YNSGKLEEFVQGNLERECMEEKCSFEEAREVFENTERTTEFWKQYVDGDQCESNPCLNGGSCKDDINSYECWCPFGFEGKNCELDVTCNIKNGRCEQFCKNSADNKVVCSCTEGYRLAENQKSCEPAVPFPCGRVSVSQTSKLTR
chain 2: VVGGEDAKPGQFPWQVVLNGKVDAFCGGSIVNEKWIVTAAHCVETGVKITVVAGEHNIEETEHTEQKRNVIRIIPHHNYNAAINKYNHDIALLELDEPLVLNSYVTPICIADEEYTNIFLKFGSGYVSGWGRVFHKGRSALVLQYLRVPLVDRATCLESTKFTIYNNMFCAGFHEGGRDSCQGDSGGPHVTEVEGTSFLTGIISWGEECAMKGKYGIYTKVSEYVNWIKEKTKLT
B2: FIXa R318Y/R338E/R403E (protein)
chain 1: B1 chain 1
chain 2: B1 chain 2 with E113K, R138Y
B3: FIXa-K247N/N249S/R318Y/R338E/R403E (protein)
chain 1: B1 chain 1
chain 2: B1 chain 2 with K67N, N69S, E113K, R138Y
B4: FIXa-Y155F/R338E/R403E/E410N (protein)
chain 1: B1 chain 1
chain 2: B1 chain 2 with E113K, E158R, R178E, E230N
B5: FIXa R318Y/R338E/R403E/E410N (protein)
chain 1: B1 chain 1
chain 2: B1 chain 2 with E113K, R138Y, E230N
B6: FIXa-K247N/N249S/R318Y/R403E/E410N (protein)
chain 1: B1 chain 1
chain 2: B1 chain 2 with K67N, N69S, E113K, R138Y, E158R, E230N
B7: FIXa-Y155F/R318Y/R338E/R403E (protein)
chain 1: B1 chain 1
chain 2: B1 chain 2 with E113K, R138Y
B8: FIXa R318Y/R338E/E410N (protein)
chain 1: B1 chain 1
chain 2: B1 chain 2 with E113K, R138Y, E223R, E230N
B9: FIXa-Y155F/K247N/N249S/R318Y/R403E/E410N (protein)
chain 1: B1 chain 1
chain 2: B1 chain 2 with K67N, N69S, E113K, R138Y, E158R, E230N
B10: FIXa-Y155F/K247N/N249S/R318Y/R338E/R403E (protein)
chain 1: B1 chain 1
chain 2: B1 chain 2 with K67N, N69S, E113K, R138Y
B11: FIXa-D104N/K106S/Y155F/K247N/N249S/R318Y/R338E/R403E/E410N (protein)
chain 1: B1 chain 1 with D104N, K106S
chain 2: B1 chain 2 with K67N, N69S, E113K, R138Y, E230N
B12: FIXa-Y155F/R318Y/R403E/E410N (protein)
chain 1: B1 chain 1
chain 2: B1 chain 2 with E113K, R138Y, E158R, E230N
B13: FIXa variant D104N/K106S/Y155F/R318Y/R338E/R403E/E410N (mature FIX numbering) (protein)
chain 1: B1 chain 1 with D104N, K106S
chain 2: B1 chain 2 with E113K, R138Y, E230N
B14: FIXa variant A103N/N105S/Y155F/R318Y/R338E/R403E/E410N (mature FIX numbering) (protein)
chain 1: B1 chain 1 with A103N, N105S
chain 2: B1 chain 2 with E113K, R138Y, E230N
B15: FIXa variant D203N/F205T/R318Y/E410N (mature FIX numbering) (protein)
chain 1: B1 chain 1
chain 2: B1 chain 2 with D23N, F25T, E113K, R138Y, E158R, E223R, E230N

Target: Factor X, P00742
Sequence (P00742 whole entry, looked up): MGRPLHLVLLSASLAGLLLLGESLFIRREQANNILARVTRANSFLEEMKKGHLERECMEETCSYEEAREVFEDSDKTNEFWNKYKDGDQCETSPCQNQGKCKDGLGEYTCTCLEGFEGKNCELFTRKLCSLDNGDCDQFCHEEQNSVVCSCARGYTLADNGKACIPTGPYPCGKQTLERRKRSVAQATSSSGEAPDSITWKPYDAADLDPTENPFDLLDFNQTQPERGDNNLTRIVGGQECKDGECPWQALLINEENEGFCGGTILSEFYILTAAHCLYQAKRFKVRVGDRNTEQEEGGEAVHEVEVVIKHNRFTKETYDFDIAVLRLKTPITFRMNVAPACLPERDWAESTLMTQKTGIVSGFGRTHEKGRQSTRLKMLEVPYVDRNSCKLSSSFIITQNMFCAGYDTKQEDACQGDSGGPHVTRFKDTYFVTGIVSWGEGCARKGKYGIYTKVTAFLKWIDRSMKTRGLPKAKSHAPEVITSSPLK

Q: For B1, which kcat is on record?
A: 0.8 s⁻¹

Q: B2 was tested. Which kcat did it give?
A: 3.5 s⁻¹

Q: How did the kcat/KM turn out when B3 was run?
A: 2.3e+08 M⁻¹ s⁻¹

Q: For B4, which “% of WT (kcat/KM)” value is on record?
A: 401%

Q: What about the kcat/KM of the same protein?
A: 1.8e+08 M⁻¹ s⁻¹

Q: Which kcat does the source give for B5 here?
A: 5 s⁻¹

Q: How did the kcat/KM turn out when B6 was run?
A: 2.7e+07 M⁻¹ s⁻¹

Q: With B7 as the protein, how does the “% of WT (kcat/KM)” value read?
A: 189%

Q: And the kcat/KM?
A: 8.7e+07 M⁻¹ s⁻¹

Q: Which kcat does the source give for B8 here?
A: 4.6 s⁻¹

Q: How did the kcat/KM turn out when B9 was run?
A: 1e+07 M⁻¹ s⁻¹

Q: Which kcat/KM does the source give for B10 here?
A: 9.5e+07 M⁻¹ s⁻¹

Target: Factor X (FX), P00742
Sequence (P00742 whole entry, looked up): as above

Q: Which results are given for B3?
A: KM: 0.0536 µM; kcat of FX activation by FIXa in the Xase complex (FVIIIa, PC/PS vesicles, Ca2+): 10.5 s⁻¹

Q: Which results are given for B6?
A: KM: 0.111 µM; kcat of FX activation by FIXa in the Xase complex (FVIIIa, PC/PS vesicles, Ca2+): 2.9 s⁻¹

Q: How did the kcat/KM turn out when B11 was run?
A: 1.3e+08 M⁻¹ s⁻¹

Q: How did the kcat/KM (M^-1s^-1), FX activation by FIXa in the Xase complex turn out when B12 was run?
A: 3.6e+07 M⁻¹ s⁻¹

Q: Which KM of FX activation by FIXa in the Xase complex (FVIIIa, PC/PS vesicles, Ca2+) does the source give for B13 here?
A: 0.048 µM

Q: For B14, which KM of FX activation by FIXa in the Xase complex (FVIIIa, PC/PS vesicles, Ca2+) is on record?
A: 0.0507 µM

Q: Which KM of FX activation by FIXa in the Xase complex (FVIIIa, PC/PS vesicles, Ca2+) does the source give for B15 here?
A: 0.0457 µM

Q: How did the KM turn out when B9 was run?
A: 0.125 µM

Q: What about the kcat of FX activation by FIXa in the Xase complex (FVIIIa, PC/PS vesicles, Ca2+) of the same protein?
A: 1.2 s⁻¹

Q: What does the source list for B10?
A: KM: 0.0673 µM; kcat of FX activation by FIXa in the Xase complex (FVIIIa, PC/PS vesicles, Ca2+): 5.7 s⁻¹
